Results on 23 molecules are retold here after patent publication US20250034271A1 (EUCURE BEIJING BIOPHARMA, published 2025).

B1: 7F10-mHvKv-IgG1-N297A (antibody, V domains shown)
VH: EVKLVESGGGLVQPGGSLKLSCATSGFTFSDYYMYWVRQTPEKRLEWVAYISYGGDSTFYPDTVRGRFTISRDNAKNALYLQMSRLKSEDTAVYYCARPAPSAHSYYLDYWGQGTTLTVSS
VL: DIQMTQTTSSLSASLGDRVTISCRASQDISNYLNWYQQKPDGTVKLLIYYTSRLHSGLPSRFSGSGSGTDYSLTISNLEQEDIATYYCQQGKTLPFTFASGTKLEIK
notes: Chimeric; human IgG1 constant regions with N297A mutation (EU numbering) in the Fc region
B2: 7F10-H2K3-IgG4 (antibody, V domains shown)
VH: B1 VH with K3Q, K19R, T40A, E42G, A78S, R85S, S88A, T116L
VL: B1 VL with T7S, L15V, S22T, D41G, T43A, S72T, N77S, E79Q
notes: Humanized
B3: 7F10-H1K2-IgG4 (antibody, V domains shown)
VH: B1 VH with K3Q, K19R, T40A, E42G, A78S, S84N, R85S, K87R, S88A, T116L
VL: DIQMTQSPSSLSASVGDRVTITCRASQDISNYLNWYQQKPGGAVKLLIYYTSRLHSGLPSRFSGSGSGTDYTFTISSLQPEDIATYYCQQGKTLPFTFASGTKLEIK
notes: Humanized
B4: 7F10-H2K1-IgG4 (antibody, V domains shown)
VH: B1 VH with K3Q, K19R, T40A, E42G, A78S, R85S, S88A, T116L
VL: B3 VL with Y71F
notes: Humanized
B5: 7F10-H2K2-IgG4 (antibody, V domains shown)
VH: B1 VH with K3Q, K19R, T40A, E42G, A78S, R85S, S88A, T116L
VL: B3 VL
notes: Humanized
B6: 7F10-H2K4-IgG4 (antibody, V domains shown)
VH: B1 VH with K3Q, K19R, T40A, E42G, A78S, R85S, S88A, T116L
VL: B3 VL with P8T, G41D, A43T, F73L, P80Q
notes: Humanized
B7: 7F10-H1K4-IgG4 (antibody, V domains shown)
VH: B1 VH with K3Q, K19R, T40A, E42G, A78S, S84N, R85S, K87R, S88A, T116L
VL: B3 VL with P8T, G41D, A43T, F73L, P80Q
notes: Humanized
B8: 7F10-H1K3-IgG4 (antibody, V domains shown)
VH: B1 VH with K3Q, K19R, T40A, E42G, A78S, S84N, R85S, K87R, S88A, T116L
VL: B3 VL with P8T, F73L, P80Q
notes: Humanized
B9: 7F10-H1K1-IgG4 (antibody, V domains shown)
VH: B1 VH with K3Q, K19R, T40A, E42G, A78S, S84N, R85S, K87R, S88A, T116L
VL: B3 VL with Y71F
notes: Humanized
B10: 4H6-H2K2-IgG4 (antibody, V domains shown)
VH: EVQLQESGPGLVKPSQTLSLTCTVSGDSVSSGYWNWIRKHPGKKLEWIGFISYSGSTYYTPSLKSRVTISRDTSKNQFSLKLSSVTAADTAVYYCARFRRYDDGVDYWGQGTLVTVSS
VL: DIQMTQSPSAMSASVGDRVTITCRASHEISGYLSWIQQKPGGTIKRLINAASTLASGVPSRFSGSRSGTEFTLTISSLQPEDFADYYCLQYSSYPWTFGGGTKLEIK
notes: Humanized
B11: 4H6-H3K3-IgG4 (antibody, V domains shown)
VH: B10 VH with W47Y, I48M, V67I, Y94F
VL: B10 VL with F71Y
notes: Humanized
B12: 4H6-H2K3-IgG4 (antibody, V domains shown)
VH: B10 VH
VL: B10 VL with F71Y
notes: Humanized
B13: 4H6-H2K1-IgG4 (antibody, V domains shown)
VH: B10 VH
VL: B10 VL with I36F, T43V, D85T
notes: Humanized
B14: 4H6-H4K4-IgG4 (antibody, V domains shown)
VH: B10 VH with H40F, W47Y, I48M, V67I, Y94F
VL: B10 VL with I21L, F71Y
notes: Humanized
B15: 4H6-H1K3-IgG4 (antibody, V domains shown)
VH: B10 VH with E1Q
VL: B10 VL with F71Y
notes: Humanized
B16: 4H6-H1K1-IgG4 (antibody, V domains shown)
VH: B10 VH with E1Q
VL: B10 VL with I36F, T43V, D85T
notes: Humanized
B17: 4H6-H3K4-IgG4 (antibody, V domains shown)
VH: B10 VH with W47Y, I48M, V67I, Y94F
VL: B10 VL with I21L, F71Y
notes: Humanized
B18: 4H6-H1K2-IgG4 (antibody, V domains shown)
VH: B10 VH with E1Q
VL: B10 VL
notes: Humanized
B19: 4H6-H3K1-IgG4 (antibody, V domains shown)
VH: B10 VH with W47Y, I48M, V67I, Y94F
VL: B10 VL with I36F, T43V, D85T
notes: Humanized
B20: 4H6-H2K4-IgG4 (antibody, V domains shown)
VH: B10 VH
VL: B10 VL with I21L, F71Y
notes: Humanized
B21: 4H6-H1K4-IgG4 (antibody, V domains shown)
VH: B10 VH with E1Q
VL: B10 VL with I21L, F71Y
notes: Humanized
B22: 4H6-H4K1-IgG4 (antibody, V domains shown)
VH: B10 VH with H40F, W47Y, I48M, V67I, Y94F
VL: B10 VL with I36F, T43V, D85T
notes: Humanized
B23: 4H6-H4K3-IgG4 (antibody, V domains shown)
VH: B10 VH with H40F, W47Y, I48M, V67I, Y94F
VL: B10 VL with F71Y
notes: Humanized

Substitutions are numbered along the chain they refer to. In names and notes the source's numbering stands.

In this assay the target is T1, Histidine-tagged human CD40 protein (hCD40-His) (human, UniProt P25942 21-193).
T1 construct: not shown: histidine tag
T1 sequence (P25942 21-193 limits assumed): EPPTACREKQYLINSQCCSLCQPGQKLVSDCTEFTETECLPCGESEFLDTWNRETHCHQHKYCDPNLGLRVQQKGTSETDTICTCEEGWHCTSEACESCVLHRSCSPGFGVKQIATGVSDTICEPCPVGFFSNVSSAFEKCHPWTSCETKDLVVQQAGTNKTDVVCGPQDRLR
As to the kind of experiment: SPR, Biacore T200; antibody on Protein A chip, hCD40-His injected; 1:1 fit. How it is done: The binding affinity of the anti-hCD40 antibodies were measured using surface plasmon resonance (SPR) using Biacore (Biacore, INC, Piscataway N.J.) T200 biosensor equipped with pre-immobilized Protein A sensor chips.
Anti-hCD40 antibodies were collected by transfecting CHO-S cells and then purified. The antibodies (1 μg/mL) were injected into Biacore T200 biosensor at 10 μL/min for about 24-33 seconds to achieve to a desired protein density (about 44-57 response units (RU)). […] Dissociation was monitored for 300 seconds. The chip was regenerated after the last injection of each titration with Glycine (pH 2.0, 30 μL/min for 12 seconds).
For orientation: SPR reads the build-up and loss of mass on a sensor chip optically.
One may read the Kd as a measure of binding affinity in units of concentration. A high value points to lower affinity. One may read the koff as a measure of how fast the partners let go of each other. A higher koff goes with a short-lived complex. For orientation: kon means the rate constant with which the complex forms. Lower therefore signals slow association. B1 gave a Kd of 194 nM, a dissociation rate constant (koff) of 0.0292 s⁻¹ and a kon of 150000 M⁻¹ s⁻¹.

B2 gave a Kd of 182 nM, an off-rate (koff) of 0.0313 s⁻¹ and a kon of 172000 M⁻¹ s⁻¹.

B3 came in with a dissociation constant Kd of 594 nM, a koff of 0.0491 s⁻¹ and a kon of 82800 M⁻¹ s⁻¹.

Turning to B4, the equilibrium dissociation constant (Kd) was 540 nM, the dissociation rate constant (koff) was determined as 0.065 s⁻¹ and the association rate constant (kon) worked out at 120000 M⁻¹ s⁻¹.

For B5, the Kd came out at 505 nM, the koff was 0.0534 s⁻¹ and the on-rate (kon) was 106000 M⁻¹ s⁻¹.

B6 gave a Kd of 202 nM, a koff of 0.038 s⁻¹ and a kon of 188000 M⁻¹ s⁻¹.

Turning to B7, the affinity, expressed as Kd, was 278 nM; the dissociation rate constant (koff) stood at 0.0321 s⁻¹; the kon was 115000 M⁻¹ s⁻¹.

B8: the equilibrium dissociation constant (Kd) is 535 nM, the dissociation rate constant (koff) amounted to 0.0391 s⁻¹ and the kon was determined as 73100 M⁻¹ s⁻¹.

B9: the affinity, expressed as Kd, was 291 nM; the koff is 0.0514 s⁻¹; the kon came to 177000 M⁻¹ s⁻¹.

Molecule B10 yielded a dissociation constant (Kd) of 138 nM, an off-rate (koff) of 0.057 s⁻¹ and an on-rate constant (kon) of 414000 M⁻¹ s⁻¹.

B11 came in with a Kd of 91.6 nM, an off-rate constant (koff) of 0.0286 s⁻¹ and a kon of 312000 M⁻¹ s⁻¹.

As to B12, the Kd was determined as 253 nM, the koff is 0.0659 s⁻¹ and the kon is 260000 M⁻¹ s⁻¹.

The molecule B13 registered a Kd of 447 nM, an off-rate constant (koff) of 0.227 s⁻¹ and an association rate constant (kon) of 507000 M⁻¹ s⁻¹.

Molecule B14 showed a dissociation constant (Kd) of 88.9 nM, an off-rate (koff) of 0.0278 s⁻¹ and a kon of 312000 M⁻¹ s⁻¹.

For B15, binding was characterised by a dissociation constant (Kd) of 229 nM, the koff amounted to 0.0554 s⁻¹ and the kon stood at 242000 M⁻¹ s⁻¹.

The molecule B16 yielded a Kd of 7720 nM, a koff of 0.167 s⁻¹ and an on-rate constant (kon) of 21700 M⁻¹ s⁻¹.

B17: the dissociation constant Kd stood at 94.8 nM, the koff was determined as 0.0282 s⁻¹ and the on-rate (kon) was found to be 298000 M⁻¹ s⁻¹.

On to B18, for which binding was characterised by a dissociation constant (Kd) of 164 nM, the koff came to 0.0632 s⁻¹ and the kon was 386000 M⁻¹ s⁻¹.

B19 came in with a dissociation constant Kd of 413 nM, a koff of 0.0342 s⁻¹ and a kon of 82700 M⁻¹ s⁻¹.

The molecule B20 registered a Kd of 378 nM, an off-rate (koff) of 0.0742 s⁻¹ and an on-rate constant (kon) of 196000 M⁻¹ s⁻¹.

In turn, B21 had a Kd of 465 nM, an off-rate constant (koff) of 0.0695 s⁻¹ and an on-rate constant (kon) of 149000 M⁻¹ s⁻¹.

Molecule B22 displayed a Kd of 145 nM, an off-rate constant (koff) of 0.0269 s⁻¹ and an association rate constant (kon) of 185000 M⁻¹ s⁻¹.

B23 registered an equilibrium dissociation constant (Kd) of 78.8 nM, a koff of 0.0257 s⁻¹ and a kon of 327000 M⁻¹ s⁻¹.
